{
  "source": "patent EP3628678A1",
  "about": "(Ecole Polytechnique Federale De Lausanne (EPFL) EPFL-TTO, dated 2020)",
  "binders": {"B1": {"name": "Palivizumab (antibody, V domains shown)", "VH": "QVTLRESGPALVKPTQTLTLTCTFSGFSLSTSGMSVGWIRQPPGKALEWLADIWWDDKKDYNPSLKSRLTISKDTSKNQVVLKVTNMDPADTATYYCARSMITNWYFDVWGAGTTVTVSS", "VL": "DIQMTQSPSTLSASVGDRVTITCKCQLSVGYMHWYQQKPGKAPKLLIYDTSKLASGVPSRFSGSGSGTEFTLTISSLQPDDFATYYCFQGSGYPFTFGGGTKLEIK"}},
  "target": "RSVF on RSV A2 strain carrying a luciferase gene (RSV-Luc) (RSV A2 strain, UniProt P03420 26-574)",
  "sequence (P03420 26-574)": "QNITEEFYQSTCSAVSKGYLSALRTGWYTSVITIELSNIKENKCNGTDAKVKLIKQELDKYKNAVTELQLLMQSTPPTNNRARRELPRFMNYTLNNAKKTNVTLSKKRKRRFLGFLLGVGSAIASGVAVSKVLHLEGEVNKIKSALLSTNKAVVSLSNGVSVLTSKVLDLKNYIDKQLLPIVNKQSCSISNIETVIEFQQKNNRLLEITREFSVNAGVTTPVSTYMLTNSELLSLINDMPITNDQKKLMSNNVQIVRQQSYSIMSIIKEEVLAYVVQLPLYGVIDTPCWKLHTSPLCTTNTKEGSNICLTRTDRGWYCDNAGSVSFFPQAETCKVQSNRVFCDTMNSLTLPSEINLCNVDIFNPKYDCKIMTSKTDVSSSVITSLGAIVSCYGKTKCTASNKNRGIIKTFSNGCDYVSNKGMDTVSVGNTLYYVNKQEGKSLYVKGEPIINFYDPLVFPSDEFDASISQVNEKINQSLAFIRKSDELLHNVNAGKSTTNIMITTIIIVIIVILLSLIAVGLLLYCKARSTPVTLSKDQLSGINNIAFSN",
  "assay": "cell-based or functional assay",
  "data": [
    {"binder": "B1", "values": [
      {"measurement": "RSV neutralization IC50 (luciferase signal of RSV-Luc on HepG2 cells)", "result": 0.32, "unit": "µg/mL"}
    ]}
  ]
}
